# Starred links: 1 amine or outer side, 2 acyl side, 3 side chain; linkers in the order of their positions; H or OH if unused. Non-standard residues stand in square brackets, D forms with d. Residues, ends and D or L forms follow the SMILES beside them. Groups on a side chain read outwards from the residue. No end group written: not given here. *: point of attachment. C18 diacid = O=C(O)CCCCCCCCCCCCCCCCC(=O)*; C17 diacid = O=C(O)CCCCCCCCCCCCCCCC(=O)*; γGlu = O=C(O)[C@H](CCC(=O)[*:2])N[*:1]; NMeY = CN[C@@H](Cc1ccc(O)cc1)C(=O)O; AEEA = NCCOCCOCC(=O)O; Aib = CC(C)(N)C(=O)O
# T1: full-length human GIPR with an N-terminal FLAG tag (human, UniProt P48546 22-466)
# T1 sequence (looked up): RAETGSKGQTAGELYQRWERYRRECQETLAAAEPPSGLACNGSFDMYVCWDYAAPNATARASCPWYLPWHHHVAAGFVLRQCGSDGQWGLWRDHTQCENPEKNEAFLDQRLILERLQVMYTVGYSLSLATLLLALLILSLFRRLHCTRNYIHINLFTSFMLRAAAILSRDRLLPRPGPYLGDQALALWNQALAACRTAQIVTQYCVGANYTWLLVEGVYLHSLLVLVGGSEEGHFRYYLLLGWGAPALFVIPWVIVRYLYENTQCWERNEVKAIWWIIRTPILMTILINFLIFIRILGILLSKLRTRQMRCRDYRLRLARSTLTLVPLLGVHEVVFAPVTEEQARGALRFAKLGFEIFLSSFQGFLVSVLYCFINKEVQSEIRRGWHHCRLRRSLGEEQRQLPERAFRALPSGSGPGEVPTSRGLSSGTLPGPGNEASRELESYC
# T2: full-length human GIPR with an N-terminal FLAG tag, overexpressed on HEK-293T cells (human, UniProt P48546 22-466)
# T2 sequence (looked up): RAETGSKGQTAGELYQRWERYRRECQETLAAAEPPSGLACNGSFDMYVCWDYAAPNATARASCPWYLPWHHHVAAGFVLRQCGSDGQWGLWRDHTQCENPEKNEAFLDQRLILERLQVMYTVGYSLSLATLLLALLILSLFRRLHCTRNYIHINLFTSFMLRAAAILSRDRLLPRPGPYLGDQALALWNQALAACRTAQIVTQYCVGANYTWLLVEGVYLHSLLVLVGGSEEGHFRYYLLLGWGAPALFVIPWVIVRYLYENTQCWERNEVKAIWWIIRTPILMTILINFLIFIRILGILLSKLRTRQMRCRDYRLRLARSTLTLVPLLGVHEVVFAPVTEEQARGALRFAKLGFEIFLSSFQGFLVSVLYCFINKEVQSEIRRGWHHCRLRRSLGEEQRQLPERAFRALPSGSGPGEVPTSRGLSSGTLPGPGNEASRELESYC
# Key:
# [1] = Solubility in phosphate buffer pH 7.4
# Method in brief: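 Solubility at pH 7.4 determined by stepwise addition of 200 mM phosphate buffer in 100 μL increments to 3 mg peptide, mixing briefly each time, until no insoluble material remained, then measured by liquid chromatography.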
# [2] = Serum half-life and percentage remaining at 48 hours; format: in vitro ADME; details: both sexes, pH 7.4, human plasma, 500 nM peptide, 37° C.; for half-life at 500 nM: read-out: Serum t1/2 (converted); for remaining at 48 h, 500 nM: plasma (sodium heparin)
# Experimental: Human plasma (mixed gender: sodium heparin is used as anti-coagulant; pre-adjusted to pH 7.4—NB alternative species may be used) is spiked with each test peptide (500 nM) and incubated·cn=3) at 37° C. for 48 hours in a 5% CO2 environment. Aliquots are taken at 0. 1, 2, 4, 7, 24 and […] and pH adjusted to pH 3 with 20% formic acid prior to analysis. Appropriate positive control compounds will be incubated in parallel, in addition to a no plasma control, sampled at 0 and 8 hours. All samples will be treated with ice-cold acetonitrile/methanol (4:1 (v/v)) containing internal standard prior to centrifugation at 2000 g and 4° C. for 10 minutes and subjected to LC-MS/MS analysis.
# The samples are analyzed by LC-MS/MS using a 6500 (or equivalent) triple quadrupole mass spectrometer (AB Sciex) coupled to an appropriate Liquid Chromatography (LC) system. Protein binding and stability values are determined via peak area ratios using multiple reaction monitoring (MRM) parameters following compound optimisation. Multiple reaction monitoring (MRM) is a highly sensitive method of targeted mass spectrometry (MS) that can be used to selectively detect and quantify peptides based on the screening of specified precursor peptide-to-fragment ion transitions.
# [3] = target: human plasma proteins; experiment: plasma protein binding, ultracentrifugation, LC-MS/MS
# [4] = target: dog plasma proteins; experiment: as above
# [5] = target: full-length human GLP-1R with an N-terminal FLAG tag (human, UniProt P43220 24-463); experiment: cell-based or functional assay
# [6] = target: T1, full-length human GIPR with an …; experiment: cell-based or functional assay
# [7] = target: T2, full-length human GIPR with an …; experiment: cell-based or functional assay
# [8] = target: full-length human GLP-1R with an N-terminal FLAG tag, overexpressed on HEK-293T cells (human, UniProt P43220 24-463); experiment: cell-based or functional assay
# [9] = pH 7.4, aqueous buffer, pH 7.4 Phosphate Buffer - Solubility, 200 mM Phosphate buffer pH 7.4
# [10] = pH 7.4, solubility in phosphate buffer at pH 7.4, 200 mM phosphate buffer pH 7.4
Molecule,"solubility [1, 9]","solubility [1, 10]",half-life at 500 nM [2],"remaining at 48 h, 500 nM [2]","Human PPB (FUplasma), fraction unbound in plasma (fraction unbound) [3]","Dog PPB (FUplasma), fraction unbound in plasma (fraction unbound) [4]","Human GLP1R cAMP EC50, HEK293T [5]","Human GIPR cAMP EC50, HEK293T [6]","Human GIPR cAMP EC50, HEK293T [7]","Human GLP1R cAMP EC50, HEK293T [8]"
CC[C@H](C)[C@H](NC(=O)[C@H](CO)NC(=O)[C@H](Cc1ccc(O)cc1)NC(=O)[C@H](CC(=O)O)NC(=O)[C@H](CO)NC(=O)[C@@H](NC(=O)[C@H](Cc1ccccc1)NC(=O)[C@@H](NC(=O)CNC(=O)[C@H](CCC(=O)O)NC(=O)C(C)(C)NC(=O)[C@H](Cc1ccc(O)cc1)NC)[C@@H](C)O)[C@@H](C)CC)C(=O)N[C@@H](C)C(=O)N[C@@H](CC(C)C)C(=O)N[C@@H](CC(=O)O)C(=O)N[C@@H](CCCNC(=N)N)C(=O)NC(C)(C)C(=O)N[C@@H](Cc1c[nH]cn1)C(=O)N[C@@H](CCC(N)=O)C(=O)NC(C)(C)C(=O)N[C@@H](CC(N)=O)C(=O)N[C@@H](Cc1ccccc1)C(=O)N[C@H](C(=O)N[C@@H](CC(N)=O)C(=O)N[C@@H](Cc1c[nH]c2ccccc12)C(=O)N[C@@H](CC(C)C)C(=O)N[C@@H](CC(C)C)C(=O)N[C@@H](C)C(=O)N[C@@H](CCC(N)=O)C(=O)N[C@@H](CCCCNC(=O)COCCOCCNC(=O)COCCOCCNC(=O)CC[C@H](NC(=O)CCCCCCCCCCCCCCCCC(=O)O)C(=O)O)C(=O)N1CCC[C@H]1C(=O)N[C@@H](CO)C(=O)N[C@@H](CO)C(=O)NCC(=O)N[C@@H](C)C(=O)N1CCC[C@H]1C(=O)N1CCC[C@H]1C(=O)N1CCC[C@H]1C(=O)N[C@@H](CO)C(N)=O)C(C)C [Compound 1] (H-[NMeY][Aib]EGTFISDYSIALDR[Aib]HQ[Aib]NFVNWLLAQK([AEEA-AEEA-γGlu-C18 diacid])PSSGAPPPS-NH2),≥ 30 mg/mL,≥ 15 mg/mL,> 48 h,100%,–,–,–,–,–,–
CC[C@H](C)[C@H](NC(=O)[C@H](CO)NC(=O)[C@H](Cc1ccc(O)cc1)NC(=O)[C@H](CC(=O)O)NC(=O)[C@H](CO)NC(=O)[C@@H](NC(=O)[C@H](Cc1ccccc1)NC(=O)[C@@H](NC(=O)CNC(=O)[C@H](CCC(=O)O)NC(=O)C(C)(C)NC(=O)[C@H](Cc1ccc(O)cc1)NC)[C@@H](C)O)[C@@H](C)CC)C(=O)N[C@@H](C)C(=O)N[C@@H](CC(C)C)C(=O)N[C@@H](CC(=O)O)C(=O)N[C@@H](CCCNC(=N)N)C(=O)N[C@H](C(=O)N[C@@H](Cc1c[nH]cn1)C(=O)N[C@@H](CCC(N)=O)C(=O)NC(C)(C)C(=O)N[C@@H](CC(N)=O)C(=O)N[C@@H](Cc1ccccc1)C(=O)N[C@H](C(=O)N[C@@H](CC(N)=O)C(=O)N[C@@H](Cc1c[nH]c2ccccc12)C(=O)N[C@@H](CC(C)C)C(=O)N[C@@H](CC(C)C)C(=O)N[C@@H](C)C(=O)N[C@@H](CCC(N)=O)C(=O)N[C@@H](CCCCNC(=O)COCCOCCNC(=O)COCCOCCNC(=O)CC[C@H](NC(=O)CCCCCCCCCCCCCCCCC(=O)O)C(=O)O)C(=O)N1CCC[C@H]1C(=O)N[C@@H](CO)C(=O)N[C@@H](CO)C(=O)NCC(=O)N[C@@H](C)C(=O)N1CCC[C@H]1C(=O)N1CCC[C@H]1C(=O)N1CCC[C@H]1C(=O)N[C@@H](CO)C(N)=O)C(C)C)[C@@H](C)CC [Compound 2] (H-[NMeY][Aib]EGTFISDYSIALDRIHQ[Aib]NFVNWLLAQK([AEEA-AEEA-γGlu-C18 diacid])PSSGAPPPS-NH2),≥ 30 mg/mL,≥ 15 mg/mL,24.1 h,27%,–,–,–,–,–,–
CC[C@H](C)[C@H](NC(=O)[C@H](CO)NC(=O)[C@H](Cc1ccc(O)cc1)NC(=O)[C@H](CC(=O)O)NC(=O)[C@H](CO)NC(=O)[C@@H](NC(=O)[C@H](Cc1ccccc1)NC(=O)[C@@H](NC(=O)CNC(=O)[C@H](CCC(=O)O)NC(=O)C(C)(C)NC(=O)[C@H](Cc1ccc(O)cc1)NC)[C@@H](C)O)[C@@H](C)CC)C(=O)N[C@@H](C)C(=O)N[C@@H](CCCCNC(=O)COCCOCCNC(=O)COCCOCCNC(=O)CC[C@H](NC(=O)CCCCCCCCCCCCCCCCC(=O)O)C(=O)O)C(=O)N[C@@H](CC(=O)O)C(=O)N[C@@H](CCCNC(=N)N)C(=O)N[C@H](C(=O)N[C@@H](Cc1c[nH]cn1)C(=O)N[C@@H](CCC(N)=O)C(=O)N[C@@H](CCC(N)=O)C(=O)N[C@@H](CC(N)=O)C(=O)N[C@@H](Cc1ccccc1)C(=O)N[C@H](C(=O)N[C@@H](CC(N)=O)C(=O)N[C@@H](Cc1c[nH]c2ccccc12)C(=O)N[C@@H](CC(C)C)C(=O)N[C@@H](CC(C)C)C(=O)N[C@@H](C)C(=O)N[C@@H](CCC(N)=O)C(=O)N[C@@H](CCCNC(=N)N)C(=O)N1CCC[C@H]1C(=O)N[C@@H](CO)C(=O)N[C@@H](CO)C(=O)NCC(=O)N[C@@H](C)C(=O)N1CCC[C@H]1C(=O)N1CCC[C@H]1C(=O)N1CCC[C@H]1C(=O)N[C@@H](CO)C(N)=O)C(C)C)[C@@H](C)CC [Compound 3] (H-[NMeY][Aib]EGTFISDYSIAK([AEEA-AEEA-γGlu-C18 diacid])DRIHQQNFVNWLLAQRPSSGAPPPS-NH2),≥ 30 mg/mL,≥ 15 mg/mL,15.9 h,13%,–,–,–,–,–,–
[NMeY][Aib]EGTFISDYSIALDR[Aib]AQ[Aib]K([AEEA-AEEA-γGlu-γGlu-C17 diacid])FVNWLLAQRG-OH [Compound No. 36],–,–,–,–,< 0.002,0.0034,87.1 nM,0.0007 nM,–,–
[NMeY][Aib]EGTFISDYSIALDR[Aib]AQ[Aib]K([AEEA-AEEA-γGlu-γGlu-C18 diacid])FVNWLLAQRG-OH [Compound No. 37],–,–,–,–,0.001,0.0012,44.7 nM,0.0005 nM,–,–
[NMeY][Aib]EGTFISDYSIALDR[Aib]AQ[Aib]K(2OEGgEgE‑C20 diacid)FVNWLLAQKG-OH [Compound No. 39],–,–,–,–,0.0112,0.0015,13.2 nM,0.0017 nM,–,–
[NMeY][Aib]EGTFISDYSI[Aib]LDR[Aib]AQ[Aib]K([2OEGgEgE-C18 diacid])FVNWLLAQRG-OH [Compound No. 72],–,–,–,–,0.0036,0.0062,43.2 nM,0.0005 nM,–,–
[NMeY][Aib]EGTFISDYSIALDR[Aib]K([AEEA-AEEA-γGlu-γGlu-C18 diacid])Q[Aib]NFVNWLLAQSPSSGAPPPS-NH2 [Compound No. 293],–,–,–,–,< 0.002,< 0.002,–,–,0.0004 nM,129 nM
[NMeY][Aib]EGTFISDYSIALDR[Aib]AQ[Aib]K([2OEGgEgE-C17 diacid])FVNWLLAQR-NH2 [Compound No. 8],–,–,–,–,0.0009,0.0016,41.4 nM,0.0003 nM,–,–
[NMeY][Aib]EGTFISDYSIALDR[Aib]K([AEEA-AEEA-γGlu-γGlu-C17 diacid])Q[Aib]NFVNWLLAQSPSSGAPPPS-NH2 [Compound No. 11],–,–,–,–,0.0038,< 0.0024,1000 nM,0.0003 nM,–,–
